Assay results published in patent US20220162327A1, “ANTI-CCR5 AGENTS AND METHODS OF TREATMENT THAT BLOCK CANCER METASTASIS OR ENHANCE CELL DEATH INDUCED BY DNA DAMAGING CHEMOTHERAPY” (CytoDyn Inc., priority 2019, published 2022).
Entries after “also recorded” stand apart in the source; their conditions may differ. Like-named read-outs stand apart in the source and are kept apart here.

How the values were obtained:
[1] = tested on: CCR5+ metastatic Triple Negative Breast Cancer; experiment: Phase Ib/II study, tumor imaging; assay type: in vivo, human
Excerpt: (§1) The primary objective of Phase 1b is to determine the safety, tolerability and maximum tolerate dose (MTD) of PRO 140 in patients with TNBC, when combined with carboplatin to define a recommended Phase II dose of the combination. The primary objective of phase 2b is to evaluate the impact on progression-free survival (PFS) of the combination PRO 140 and carboplatin in patients with CCR5+ TNBC previously treated with anthracyclines and taxanes in neoadjuvant and adjuvant setting.
The baseline target lesion was identified in the right upper lung at the size of 25 mm. The lesion was described as pleural based, major fissure, soft tissue density nodule in the right hilum.
(§2) Each treatment cycle consisted of 21 days. […] This treatment regimen was used for all subjects enrolled in the mTNBC study, unless otherwise indicated.
Scans were taken at the end of every two cycles (every 6 weeks). The subject had Scan 1 after six weeks, a Scan 2 after 12 weeks, and Scan 3 after 18 weeks (Table 4).

MDA-MB-231 cells = experiment: 3D-matrigel invasion assay, CCL5 as chemoattractant; assay type: cell-based, human
Excerpt: FIG. 3A, FIG. 3B, FIG. 3C, and FIG. 3D. […] The ability of breast cancer cells to invade extra-cellular matrix is […] an important step in tumor metastasis (Zetter, 1990). To test the ability of PRO140 to block 3D-matrigel invasion assay, MDA-MB-231 cells were used. CCL5 was used as chemoattractant to induce invasion. The small molecule inhibitor of CCR5, vicriviroc, was used as a form of positive control.

CCR5 [2] = biological target: T1, CCR5 (Homo sapiens, UniProt P51681); settings: CHO-K1 cells, cited from earlier work
T1 sequence (P51681 whole entry): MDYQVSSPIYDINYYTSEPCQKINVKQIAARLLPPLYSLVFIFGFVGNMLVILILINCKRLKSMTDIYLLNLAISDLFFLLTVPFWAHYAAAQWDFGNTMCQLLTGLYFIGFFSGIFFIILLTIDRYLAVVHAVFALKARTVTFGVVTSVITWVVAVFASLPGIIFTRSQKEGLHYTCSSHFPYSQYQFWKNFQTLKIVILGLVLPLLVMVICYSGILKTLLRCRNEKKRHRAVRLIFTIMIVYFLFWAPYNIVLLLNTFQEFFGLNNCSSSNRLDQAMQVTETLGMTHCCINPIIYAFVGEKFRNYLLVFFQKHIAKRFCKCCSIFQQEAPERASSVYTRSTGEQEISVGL

[3] = Phase Ib/II study, safety; assay type: in vivo; settings: Subject 706-001, at Cycle 6 Day 1 visit, weekly leronlimab and carboplatin every three weeks
Excerpt: as §1, §2

CCR5 [4] = biological target: T1, CCR5; experiment: FACS binding of leronlimab to CCR5 in MDA-MB-231-CCR5 cells; parameters: expressed in transfected cells; host or cells: MDA-MB-231 human breast cancer cell line (MDA-MB-231-CCR5)
Excerpt: A previously tested commercial APC conjugated mouse anti-human/mouse/rat CCR5 antibody from R&D (FAB1802A) (APC-αCCR5) was used as a positive control to assess CCR5 positive cells.

[5] = Subject 706-001, scan 3, with carboplatin
[6] = Subject 706-001, with carboplatin

B1: leronlimab: humanized monoclonal antibody to CCR5; humanized version of the murine mAb PA14 (antibody, chains of the INN, looked up, V domains shown)
VH: EVQLVESGGGLVKPGGSLRLSCAASGYTFSNYWIGWVRQAPGKGLEWIGDIYPGGNYIRNNEKFKDKTTLSADTSKNTAYLQMNSLKTEDTAVYYCGSSFGSNYVFAWFTYWGQGTLVTVSS
VL: DIVMTQSPLSLPVTPGEPASISCRSSQRLLSSYGHTYLHWYLQKPGQSPQLLIYEVSNRFSGVPDRFSGSGSGTDFTLKISRVEAEDVGVYYCSQSTHVPLTFGQGTKVEIK
- decrease in size of target lesion [1, 5]: 20%
- new lung nodules [1, 5]: no new lung nodules found
- decrease in size of target lesion (as measured by tumor volume) [1, 6]: greater than 20%
- new lymphadenopathy or metastatic disease on diagnostic CT chest, abdomen and pelvis [1, 6]: No new lymphadenopathy or metastatic disease reported
- right hilar lymph node [1, 6]: resolved
- maximum standardized uptake values (SUVs) of right lung metastasis ([1]; Subject 706-001, with carboplatin, previously 15.3): 6.8
- effect on MDA-MB-231 cell invasion (MDA-MB-231 cells; 175 µg/ml): can effectively block MDA-MB-231 cell invasion
- effect on MDA-MB-231 cell invasion (MDA-MB-231 cells; 350 µg/ml): can effectively block MDA-MB-231 cell invasion
- effect on CCL5-induced cell invasion (MDA-MB-231 cells; vicriviroc as positive control): reduced CCL5-induced MDA-MB-231 breast cancer cell invasion with similar efficacy as vicriviroc; also recorded: blocked 3D matrigel invasion
- effect on chemotaxis (CCR5 [2]; administered with CCL5): reduces CCL5-induced chemotaxis
- effect on chemotaxis (CCR5 [2]; alone): does not affect chemotaxis of CHO-K1 cells
- serious adverse events [3]: no serious adverse events had been reported
- efficiency of binding to CCR5 positive cells (CCR5 [4]): 98%
- efficiency of binding to CCR5 positive cells (CCR5 [4]; listed as PRO140): up to 98%
